{"source": "paper PMC3568461", "tested_on": "CCCC[C@H](NC(=O)c1ccccc1)C(=O)N[C@@H](CCCCN)C(=O)N[C@@H](CCCNC(=N)N)C(=O)N[C@@H](CCCNC(=N)N)C(=O)Nc1ccc2c(C)cc(=O)oc2c1", "test": "In vitro WNV protease assay with tetra-peptide substrate", "format": "biochemical, West Nile virus", "details": "other: tetra-peptide substrate; pH 9.5; 25.0 °C", "data": [{"substance": "WNV NS2B-NS3 protease (West Nile virus strain NY-99)", "values": [{"measurement": "Km", "value": "24.56 ± 1.43", "unit": "µM"}]}]}
